Target: T1, C5b6 with bound C7 and C8, assembled on the SPR chip (human | , UniProt P01031 19-673; P01031 752-1676; P13671 22-934; P10643 23-843; P07357 31-584; …)
T1 construct: complement C5 beta chain, as part of C5b; complement C5 alpha' chain of C5b; complement component C6; complement component C7; complement component C8 alpha chain; complement component C8 beta chain; complement component C8 gamma chain; Formed by injecting C7 (4 nM) and then C8 (8 nM) over C5b6 captured on the anti-C5 tool antibody; source: assembled on the SPR chip from bought C5b6, C7 and C8 …
Assay: SPR; MAC assembly assay, Biacore 8K, HBS-EP+; anti-C5 antibody amine coupled to a CM5 chip, C5 or C5b6 captured at 4 nM; C7, C8 and C9 flowed over in succession at 4, 8 and 50 nM, also with single components left out
Settings: both partners purified

binding result: binds
B1: Complement C9 (natural protein)
chain: not shown
notes: complement component C9; Unlabelled C9 as used in SPR; source: bought: Complement Technology (Comptech)
